Values quoted from earlier work in paper PMC10136230.

Biological target: AGE-albumin (UniProt P02768)
Assay: 125I-labeled ligand binding

## RAGE (from UniProt Q15109)
  Kd: 200 nM
